In publication PMC12232725:

How the values were obtained:
biotin-AviTag-cGASCD = biotin-AviTag-cGASCD (human, UniProt Q8N884 158-522); assay: BLI; N protein first adds signal, then accelerates dissociation; conditions: protein: recombinant; tags: AviTag, biotinylated; blunt
[1] = target: T1, N protein (unphosphorylated, lambda-phosphatase treated) (SARS-CoV-2 (isolate Wuhan-Hu-1), UniProt P0DTC9 1-419); assay: MST; apparent; Hill nH = 1.7 +/- 0.4; conditions: protein: recombinant; tags: His6-MBP tag cleaved (3C); linker remnant possible; chain copies: 2; stem loop
[2] = target: T1, N protein (unphosphorylated, …); assay: MST; apparent; Hill nH = 1.6 +/- 0.1; conditions: protein: recombinant; tags: His6-MBP tag cleaved (3C); linker remnant possible; chain copies: 2; label: Cy5 at 5' end of forward strand; blunt
cGAS = cGAS (human, UniProt Q8N884 1-522)

B1: 45-bp DNA (ISD) (dsDNA)
DNA 1: TACAGATCTACTAGTGATCTATGACTGATCTGTACATGATCTACA
DNA 2: TGTAGATCATGTACAGATCAGTCATAGATCACTAGTAGATCTGTA
binding result (biotin-AviTag-cGASCD): binds

B2: 50-nt RNA-Cy5 (ssRNA)
RNA: GAUCUCUUGUAGAUCUGUUCUCUAAACGAACUUUAAAAUCUGUGUGGCUG
Kd [1]: 3 ± 0.4 nM

B3: 50-bp DNA-Cy5 (dsDNA)
DNA 1: GATCTCTTGTAGATCTGTTCTCTAAACGAACTTTAAAATCTGTGTGGCTG
DNA 2: CAGCCACACAGATTTTAAAGTTCGTTTAGAGAACAGATCTACAAGAGATC
Kd [2]: 6.3 ± 0.3 nM | binding result (cGAS): binds

B4: 50-bp DNA (label-free) (dsDNA)
DNA 1: B3 DNA 1
DNA 2: B3 DNA 2
binding result (cGAS): binds
